From patent publication US20190241655A1 (Merck Sharp & Dohme, published 2019) come the findings set out here.

The assay concerns the target T1, ILT3Fc (human).
T1 construct: also called ILT3Fc-fusion protein; human ILT3Fc
The assay can be described thus: Octet (BLI), ILT3Fc on anti-human Fc biosensors, antibody supernatant 167 nM. For orientation: Biolayer interferometry detects binding as a change in optical thickness at a sensor tip.

T1 sequence (chain, as listed by the source limits assumed): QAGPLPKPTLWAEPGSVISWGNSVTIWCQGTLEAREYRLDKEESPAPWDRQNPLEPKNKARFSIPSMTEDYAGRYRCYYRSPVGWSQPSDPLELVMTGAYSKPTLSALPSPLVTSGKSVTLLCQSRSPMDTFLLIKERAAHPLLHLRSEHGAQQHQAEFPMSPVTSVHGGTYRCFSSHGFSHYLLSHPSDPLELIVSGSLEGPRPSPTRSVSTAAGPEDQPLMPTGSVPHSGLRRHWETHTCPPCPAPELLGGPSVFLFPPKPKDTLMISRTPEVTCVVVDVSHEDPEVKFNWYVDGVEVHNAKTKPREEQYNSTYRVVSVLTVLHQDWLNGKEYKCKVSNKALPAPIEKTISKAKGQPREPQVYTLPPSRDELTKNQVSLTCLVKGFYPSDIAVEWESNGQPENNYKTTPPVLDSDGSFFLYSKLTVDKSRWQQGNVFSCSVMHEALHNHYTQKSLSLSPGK

B1: DX446 (antibody, V domains shown)
VH: QIQLVQSGPELKKPGETVKISCKASGYTFTNYRMTWVKQAPGKGLKWMGWINTNTGDPTYAEELKGRFAFSSETSASTAYLQINNLKNEDTATYFCAREGFFNYAMDYWGQGTSVTVSS
VL: DILLTQSPAILSVSPGKRVSFSCRASQSIGTSIHWYQQRTNGSPRLLIKYASESISGIPSRFSGSGSGTDFTLSINSVESEDIADYYCQQSNSWPPTFGAGTKLELK
notes: Mouse hybridoma anti-ILT3 antibody tested as hybridoma supernatant; also called Anti-ILT3 (DX446)
For the molecule B1, the binding result is given as “binds”.

B2: DX435 (antibody, V domains shown)
VH: EVQLQQSGPEMVKPGASVKISCKASGYAFTDYNIHWVKKSHGKSPEWIGHIYPYNKDTVFNQNKTKATLTVDKSTTTAYMDLRSLTSEDSAVYYCARGAVGYFDYWGQGTTLTVSS
VL: DIQMTQSPASLSASVGETVTITCRASGNIHNFLAWYQQKQGKSPQLLVYNAKTLADGVPSRFSGSGSGTQYSLKINSLQPEDFGSYYCQHFWSYPFTFGAGTKLELK
notes: Mouse hybridoma anti-ILT3 antibody tested as hybridoma supernatant
Regarding B2, the binding result was “binds”.

B3: DX440 (antibody, V domains shown)
VH: EVQLQQSGPELVKPGASVKISCKASGYTFSDYNMHWVKQSHGKSLKWIGHIFPYIGDTVYNQKFTSKATLTVDNSSSTGYMEIRSLTSEDSAVYYCARGAVGYFDYWGQGTTLTVSS
VL: DIQMTQSPASLSASVGETVTITCRASGNIHNYLAWYQQKQGKSPQFLVYNAKTLADGVPSRFSGSGSGTQYSLKINSLQPEDFGTYYCQHFWSFPFTFGAGTKLELK
notes: as for B2
For B3, the binding result is listed as “binds”.

B4: DX439 (antibody, V domains shown)
VH: EVQLQQPGPELVKPGASVKISCKASGYTFTDYNMHWVRQRHGKSLEWIGHIYPYNGNTVYNQRFKNKATLNVDNFSSTAYMELRSLTSEDSAVYYCARGAVGYFDHWGQGTTLTVSS
VL: DIQMTQSPASLSASVGETVTITCRASGNIHNFLAWYQQKQGRSPQLLVYNAKTLADGVPSRFSGSGSGTQYSLKINSLQPEDFGNYYCQHFWSYPFTFGAGTNLELK
notes: as for B2
With B4, the binding result is “binds”.
